Key:
[1] = biological target: Trypanosoma cruzi oligopeptidase B (OPBTc), recombinant, N-terminal His-tagged (Trypanosoma cruzi (CL Brener)); experiment: AUC; sedimentation velocity, 10 °C, OPBTc at 28.1, 8.4 and 1.8 µM in 25 mM Tris pH 8.0, 100 mM NaCl, 130,000 x g; c(s) analysis, s combined with the Stokes radius from SEC
[2] = biological target: Trypanosoma cruzi oligopeptidase B (OPBTc), recombinant, N-terminal His-tagged (Trypanosoma cruzi (CL Brener)); experiment: SEC; Superdex 200 10/300, 25 mM Tris-HCl pH 8.0, 200 mM NaCl, room temperature, calibrated with proteins of known Stokes radii; also run with 0.5 or 1.0 M NaCl (same elution, dimer not disrupted)
[3] = biological target: Trypanosoma cruzi oligopeptidase B (OPBTc), recombinant, N-terminal His-tagged (Trypanosoma cruzi (CL Brener)); experiment: SEC; enzyme incubated at 28, 37, 42, 50 or 60°C for 20 min before the run; Superdex 200 10/300, 25 mM Tris-HCl pH 8.0; at 50 and 60°C a void-volume aggregate peak and a second peak of 160 kDa

Measured: stoichiometry N

Trypanosoma cruzi oligopeptidase B (OPBTc), recombinant, N-terminal His-tagged (enzyme)
2: all assays above
